Laboratory results: patent US20200199231A1 (Genmab, published 2020)
Numbering of substitutions follows the chain as printed.

T1: human CD20 (human, UniProt P11836 1-297)
T1 construct: whole, on cells; On Daudi and other human B cell lines, on human B cells in blood, or transiently expressed in HEK293F cells (construct pEE12.4CD20HS-GA); also called wild type CD20; WT CD20
T1 sequence (looked up): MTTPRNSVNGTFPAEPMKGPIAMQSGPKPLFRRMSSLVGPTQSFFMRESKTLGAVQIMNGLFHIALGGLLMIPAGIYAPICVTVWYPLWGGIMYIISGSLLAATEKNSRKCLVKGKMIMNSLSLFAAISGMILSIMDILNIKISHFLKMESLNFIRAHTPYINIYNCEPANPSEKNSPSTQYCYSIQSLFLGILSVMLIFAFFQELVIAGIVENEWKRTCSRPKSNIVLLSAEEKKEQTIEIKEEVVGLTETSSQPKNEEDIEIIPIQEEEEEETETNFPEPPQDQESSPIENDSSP

T2: CD20 KDD mutant (human, UniProt P11836 1-297)
T2 construct: whole, on cells; Transiently expressed in HEK293F cells; also called T159K/N163D/N166D
T2 sequence (looked up): T1 sequence (looked up) with T159K, N163D, N166D

T3: CD20-AxP (human, UniProt P11836 1-297)
T3 construct: whole, on cells; Transiently expressed in HEK293F cells; also called AxP mutant; CD20 mutant (CD20-AxP)
T3 sequence (looked up): T1 sequence (looked up) with A170S, P172S

B1: IgG1-11B8 (antibody, V domains shown)
VH: EVQLVQSGGGLVHPGGSLRLSCTGSGFTFSYHAMHWVRQAPGKGLEWVSIIGTGGVTYYADSVKGRFTISRDNVKNSLYLQMNSLRAEDMAVYYCARDYYGAGSFYDGLYGMDVWGQGTTVTVSS
VL: EIVLTQSPATLSLSPGERATLSCRASQSVSSYLAWYQQKPGQAPRLLIYDASNRATGIPARFSGSGSGTDFTLTISSLEPEDFAVYYCQQRSDWPLTFGGGTKVEIK
notes: Monospecific, bivalent IgG1
B2: IgG1-7D8 (antibody, V domains shown)
VH: EVQLVESGGGLVQPDRSLRLSCAASGFTFHDYAMHWVRQAPGKGLEWVSTISWNSGTIGYADSVKGRFTISRDNAKNSLYLQMNSLRAEDTALYYCAKDIQYGNYYYGMDVWGQGTTVTVSS
VL: B1 VL with D93N, L96I, G100Q, K103R, V104L
notes: Monospecific, bivalent IgG1
B3: bsIgG1-huCD3-H1L1-FEALxCD20-2C6-FEAR (bispecific antibody)
heavy 1: not shown
light: not shown
heavy 2: AVQLVESGGGLVQPGRSLRLSCAASGFTFGDYTMHWVRQAPGKGLEWVSGISWNSGSIGYADSVKGRFTISRDNAKNSLYLQMNSLRAEDTALYYCTKDNQYGSGSTYGLGVWGQGTLVTVSSASTKGPSVFPLAPSSKSTSGGTAALGCLVKDYFPEPVTVSWNSGALTSGVHTFPAVLQSSGLYSLSSVVTVPSSSLGTQTYICNVNHKPSNTKVDKRVEPKSCDKTHTCPPCPAPEFEGGPSVFLFPPKPKDTLMISRTPEVTCVVVAVSHEDPEVKFNWYVDGVEVHNAKTKPREEQYNSTYRVVSVLTVLHQDWLNGKEYKCKVSNKALPAPIEKTISKAKGQPREPQVYTLPPSREEMTKNQVSLTCLVKGFYPSDIAVEWESNGQPENNYKTTPPVLDSDGSFFLYSRLTVDKSRWQQGNVFSCSVMHEALHNHYTQKSLSLSPGK
VL: B1 VL with D93N
notes: also called CD3x2C6; huCD3x2C6
B4: bsIgG1-huCLB-T3/4-FEALxCD20-7D8-FEAR (bispecific antibody)
heavy 1: EVQLVESGGGLVKPGGSLRLSCAASGFTFSSYGMFWVRQAPGKGLEWVATISRYSRYIYYPDSVKGRFTISRDNAKNSLYLQMNSLRAEDTAVYYCARRPLYGSSPDYWGQGTLVTVSSASTKGPSVFPLAPSSKSTSGGTAALGCLVKDYFPEPVTVSWNSGALTSGVHTFPAVLQSSGLYSLSSVVTVPSSSLGTQTYICNVNHKPSNTKVDKRVEPKSCDKTHTCPPCPAPEFEGGPSVFLFPPKPKDTLMISRTPEVTCVVVAVSHEDPEVKFNWYVDGVEVHNAKTKPREEQYNSTYRVVSVLTVLHQDWLNGKEYKCKVSNKALPAPIEKTISKAKGQPREPQVYTLPPSREEMTKNQVSLTCLVKGFYPSDIAVEWESNGQPENNYKTTPPVLDSDGSFLLYSKLTVDKSRWQQGNVFSCSVMHEALHNHYTQKSLSLSPGK
VL 1: EIVLTQSPATLSLSPGERATLSCSASSSVTYVHWYQQKPGQAPRLLIYDTSKLASGIPARFSGSGSGTDFTLTISSLEPEDFAVYYCFQGSGYPLTFGSGTKLEMR
heavy 2: EVQLVESGGGLVQPDRSLRLSCAASGFTFHDYAMHWVRQAPGKGLEWVSTISWNSGTIGYADSVKGRFTISRDNAKNSLYLQMNSLRAEDTALYYCAKDIQYGNYYYGMDVWGQGTTVTVSSASTKGPSVFPLAPSSKSTSGGTAALGCLVKDYFPEPVTVSWNSGALTSGVHTFPAVLQSSGLYSLSSVVTVPSSSLGTQTYICNVNHKPSNTKVDKRVEPKSCDKTHTCPPCPAPEFEGGPSVFLFPPKPKDTLMISRTPEVTCVVVAVSHEDPEVKFNWYVDGVEVHNAKTKPREEQYNSTYRVVSVLTVLHQDWLNGKEYKCKVSNKALPAPIEKTISKAKGQPREPQVYTLPPSREEMTKNQVSLTCLVKGFYPSDIAVEWESNGQPENNYKTTPPVLDSDGSFFLYSRLTVDKSRWQQGNVFSCSVMHEALHNHYTQKSLSLSPGK
VL 2: B1 VL with D93N, L96I, G100Q, K103R, V104L
notes: also called huCLB-T3/4x7D8; bsIgG1-huCLB-3/4-FEALxCD20-7D8-FEAR
B5: bsIgG1-huCLB-T3/4-FEALxCD20-2F2-FEAR (bispecific antibody)
heavy 1: B4 heavy 1
VL 1: B4 VL 1
heavy 2: B4 heavy 2 with D15G, H30N, T57S, N77K
VL 2: B1 VL with D93N, L96I, G100Q, K103R, V104L
notes: also called huCLB-T3/4x2F2; bsIgG1-huCLB-3/4-FEALxCD20-2F2-FEAR

Assays:
human CD20 [1] = molecular target: T1, human CD20; assay: flow cytometry on Daudi cells (CD20-positive, CD3-negative); PE-conjugated goat anti-human IgG F(ab')2; geomean (PE)
Description: (§1) In addition to the non-activating mutations, L234F, L235E, D265A, on both arms, the bispecific antibody contained an F405L mutation on one arm and a K409R mutation on the other arm.
(§2) Cells (1×10⁵ cells/well) were incubated in polystyrene 96-well round-bottom plates (Greiner bio-one, cat. no. 650101) with serial dilutions of antibodies (range 0.041 to 30 μg/mL in 3-fold dilution steps [A-E] and 0.00061 to 10 μg/mL in 4-fold dilution steps [F-I]) in 100 μL PBS/0.1% BSA/0.02% azide (from here designated as staining buffer) at 4° C. for 30 min.
(§3) After washing twice in staining buffer, cells were incubated in 50 μL secondary antibody at 4° C. for 30 min. As a secondary antibody, R-Phycoerythrin (PE)-conjugated goat-anti-human IgG F(ab′)₂ (cat. no. 109-116-098, Jackson ImmunoResearch Laboratories, Inc., West Grove, Pa.) diluted 1:200 in staining buffer, was used for all experiments. Next, cells were washed twice in staining buffer, re-suspended in 30 μL staining buffer and analyzed on an iQue screener (Intellicyt Corporation, USA) (for FIG. 1A-E) or re-suspended in 100 μL staining buffer and analyzed on a FACSCANTOII (BD Biosciences) (FIG. 1F-I). Binding curves were analyzed using non-linear regression (sigmoidal dose-response with variable slope) using GraphPad Prism V75.04 software (GraphPad Software, San Diego, Calif., USA).

CD20 KDD mutant [2] = molecular target: T2, CD20 KDD mutant; assay: flow cytometry, HEK293F cells expressing CD20 KDD mutant
Description: (§4) PCR was performed on a Tgradient Thermocycler 96 (Biometra) using a 35 cycle program of: +95° C. for 15 min, followed by 35 cycles of: +94° C. for 30 sec, anneal: 55° C. for 30 sec and extension: +72° C. for 2 min, followed by a final extension step at 72° C. for 10 min and subsequent storage at 4° C. The completed reactions were analyzed by agarose gel electrophoresis. See Table 11 for details of primer pairs used for colony PCR. DNA sequencing: Plasmid DNA samples were send to AGOWA (Berlin, Germany) for sequence analysis. Sequences were analyzed using the VectorNTI software package (Informax, Frederick, Md., USA).
(§5) Mutagenesis: The mutagenesis was performed, using the QuikChange® XL Site-Directed Mutagenesis kit (Cat 200517-5, Lot 1120630, Stratagene Europe) according to the manufacturer's instructions. Mutagenesis reactions were concentrated using ethanol precipitation and transformed into either oneshot DH5α-TIR competent E. coli cells or electroporated into ElectroTen-Blue® Electroporation-Competent Cells. Colonies were checked by colony PCR and restriction digestion prior to transfection. […] Anti-CD20 Antibody binding: HEK293F cells were taken up in staining buffer (PBS supplemented with 0.1% BSA and 0.02% NaN₃) and added to round bottom plates (1-3×10⁵/well in 100 μL). […] After washing twice in staining buffer, cells were incubated in 50 μL secondary antibody at 4° C. for 30 min. As a secondary antibody, R-Phycoerythrin (PE)-conjugated goat-anti-human IgG F(ab′)₂ was used, as described supra. Next, cells were washed once in staining buffer, re-suspended in 150 μL staining buffer and analyzed on a flow cytometer (FACSCanto-720, Becton Dickinson, San Diego, Calif., USA) and 10,000 events per sample were acquired at high flow rate. Binding curves were analyzed using non-linear regression (sigmoidal dose-response with variable slope) using GraphPad Prism V75.04 software (GraphPad Software, San Diego, Calif., USA).

CD20-AxP [3] = molecular target: T3, CD20-AxP; assay: flow cytometry, HEK293F transfectants, MFI mutant/MFI wt at 10 µg/mL
Description: (§6) As a secondary antibody, R-Phycoerythrin (PE)-conjugated goat-anti-human IgG F(ab′)₂ was used, as described supra. Next, cells were washed once in staining buffer, re-suspended in 150 μL staining buffer and analyzed on a flow cytometer (FACSCanto-720, Becton Dickinson, San Diego, Calif., USA) and 10,000 events per sample were acquired at high flow rate. Binding curves were analyzed using non-linear regression (sigmoidal dose-response with variable slope) using GraphPad Prism V75.04 software (GraphPad Software, San Diego, Calif., USA).
(§7) Numbers indicate the percentage of binding to the CD20 mutants, relative to binding to wild type CD20, at 10 μg/mL. The percentage of binding was calculated by the following formula: (MFI binding to CD20 mutant)/(MFI binding CD20 wt) × 100%

CD20 KDD mutant [4] = molecular target: T2, CD20 KDD mutant; assay: as above
Description: as §6, §7

human CD20 [5] = molecular target: T1, human CD20; assay: flow cytometry on Daudi cells (CD20-positive, CD3-negative); PE-conjugated goat anti-human IgG F(ab')2; median FI (PE)
Description: as §1, §2, §3

human CD20 [6] = molecular target: T1, human CD20; assay: flow cytometry on HEK293F cells transiently expressing wild type CD20; PE-conjugated goat anti-human IgG F(ab')2; MFI
Description: as §4, §5

human CD20 [7] = molecular target: T1, human CD20; assay: flow cytometry on Daudi cells (CD20-positive, CD3-negative); PE-conjugated goat anti-human IgG F(ab')2; median FI (PE); remark: listed apart in the source
Description: as §1, §2, §3

human CD3 = molecular target: T4, human CD3 (human, UniProt P07766 22-207); assay: flow cytometry on Jurkat cells (CD3-positive, CD20-negative); PE-conjugated goat anti-human IgG F(ab')2; median FI (PE)
T4 construct: CD3 as part of the TCR complex on Jurkat cells or human T cells; also called human CD3ε (epsilon)
T4 sequence (P07766 22-207 limits assumed): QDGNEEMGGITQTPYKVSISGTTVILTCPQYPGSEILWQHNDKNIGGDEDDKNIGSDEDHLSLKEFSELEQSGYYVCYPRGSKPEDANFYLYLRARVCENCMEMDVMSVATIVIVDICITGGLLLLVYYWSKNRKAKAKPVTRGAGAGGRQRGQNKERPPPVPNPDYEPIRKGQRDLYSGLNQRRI
Description: as §1, §2, §3

CD20-AxP [8] = molecular target: T3, CD20-AxP; assay: flow cytometry on HEK293F cells transiently expressing CD20-AxP (A170S/P172S); PE-conjugated goat anti-human IgG F(ab')2; MFI
Description: as §4, §5

Row | Binder | EC50 (read off the curve) (human CD20 [1]) [µg/mL] | binding result (CD20 KDD mutant [2]) | % of wt CD20 binding (CD20-AxP [3]) [%] | % of wt CD20 binding (CD20 KDD mutant [4]) [%] | EC50 (read off the curve) (human CD20 [5]) [µg/mL] | EC50 (read off the curve) (human CD20 [6]) [µg/mL] | EC50 (read off the curve) (human CD20 [7]) [µg/mL] | EC50 (read off the curve) (human CD3) [µg/mL] | EC50 (read off the curve) (CD20-AxP [8]) [µg/mL]
1 | B1 | ~2 | – | – | – | – | – | – | – | –
2 | B2 | ~0.6 | – | – | – | – | – | – | – | –
3 | B3 | – | no binding (tested: 0.0015-10 µg/mL) | 92 | 3 | ~0.9 | ~0.1 | – | – | –
4 | B4 | – | no binding (tested: 0.0015-10 µg/mL) | 113 | 3 | – | ~0.1 | ~0.8 | ~0.1 | ~0.2
5 | B5 | – | no binding (tested: 0.0015-10 µg/mL) | 112 | 5 | – | ~0.1 | ~0.3 | ~0.06 | ~0.2
